Source: publication PMC10846083

Columns and labels:
[1] = biological target: T1, MqsA (Escherichia coli K-12 MG1655) (UniProt Q46864); test: EMSA; details: EMSA: 0.25 pmol biotin probe, MqsA titration, 6% polyacrylamide gel in TBE, buffer not given, footprinting: 200 ng FAM probe, 30 min, 25 C
T1 sequence: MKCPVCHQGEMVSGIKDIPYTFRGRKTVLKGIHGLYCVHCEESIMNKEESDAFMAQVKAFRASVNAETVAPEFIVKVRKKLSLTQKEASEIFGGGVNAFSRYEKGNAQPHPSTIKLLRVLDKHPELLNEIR

[2] = biological target: T1, MqsA (Escherichia coli K-12 MG1655); test: DNase I footprinting; details: EMSA: 0.25 pmol biotin probe, MqsA titration, 6% polyacrylamide gel in TBE, buffer not given, footprinting: 200 ng FAM probe, 30 min, 25 C

| Sequence | binding [1] | binding [2] |
| --- | --- | --- |
| GATTGCGTAGCAGGGCCACTGGTATCTGCCGGTATCACCGACATTAACATTGAAGACGACCAGGGCATTCACGTCCGCCTGATAGTTCGTGATGCCGAAGGTCGGATGGTTGGCGGGCATGGAACTTTGAACCGGACGCCGGTGAAGGTTTTAACCGCTATATCCACAGGTCAGGCATCCGCACCGACACCTTCCCCCGCTGACTCCGAATCATTTACCAGCAACATTTCACCTTCCCAAACGCGCTTTATTACCTCATACGCCAG (double strand) [lfgA (yfjY) promoter WT probe] | binds |  |
| CTGGCGTATGAGGTAATAAAGCGCGTTTGGGAAGGTGAAATGTTGCTGGTAAATGATTCGGAGTCAGCGGGGGAAGGTGTCGGTGCGGATGCCTGACCTGTGGATATAGCGGTTAAAACCTTCTTTTGCGTCATTATCAAAGTTCCATGCCCGCCAACCATCCGACCTTCGGCATCACGAACTATCAGGCGGACGTGAATGCCCTGGTCGTCTTCAATGTTAATGTCGGTGATACCGGCAGATACCAGTGGCCCTGCTACGCAATC (double strand) [lfgA promoter mutant probe 1 (MP)] | binds |  |
| GATTGCGTAGCAGGGCCACTGGTATCTGCCGGTATCACCGACATTAACATTGAAGACGACCAGGGCATTCACGTCCGCCTGATAGTTCGTGATGCCGAAGGTCGGATGGTTGGCGGGCATGGAACTTTGAACCGGACGCCGGTGAAGGTTTTAACCGCTATATCCACAGGTCAGGCATCCGCACCGACACCTTCCCCCGCTGACTCCGAATCATTTACCAGCAACATTTCACCTTCCCAAACGCGCTTTATTACCTCATACGCCAG (double strand) [FAM-lfgA (yfjY) promoter footprint probe] |  | binds |
| CTGGCGTATGAGGTAATAAAGCGCGTTTGGGAAGGTGAAATGTTGCTGGTAAATGATTCGGAGTCAGCGGGGGAAGGTGTCGGTGCGGATGCCTGACCTGTGGATATAGCGGTTAAAACCTTCACCGGCGTCCGGTTCAAAGTTCCATGCCCGCCAACCATCCGACCTTCGGCATCACGAACTATCAGGCGGACGTGAATGCCCTGGTTTGTGTCAATGTTAATGTCGGTGATACCGGCAGATACCAGTGGCCCTGCTACGCAATC (double strand) [lfgA promoter mutant probe 2 (MP2)] | no binding |  |
